Experimental data published in publication PMC8167854, “Transfer of stabilising mutations between different secondary active transporter families” (FEBS Open Bio, 2021).

Biological target: the molecule itself
Experiment: SDS/PAGE of SEC fractions, bands identified by mass spectrometry; protein purified in 0.03% DDM, eluted from Superdex 200 10/300 in 20 mM Tris/HCl pH 7.5, 150 mM NaCl; fractions on a 12% Tris-Glycine SDS/PAGE gel; monomer and dimer bands

B1: Arabidopsis thaliana boron transporter 1 (AtBOR1), wild-type (natural protein)
chain: not shown
notes: BOR1 borate transporter of Arabidopsis thaliana (SLC4 family), full-length wild type; Expressed from pDDGFP-2 with a TEV-cleavable C-terminal yEGFP His-tag; also called WT AtBOR1; AtBOR1 WT; source: S. cerevisiae FGY217, purified in DDM (His-Trap, TEV cleavage, reverse IMAC, Superdex 200); not shown: yEGFP, C-terminal, cleaved; His-tag, C-terminal, cleaved
binding result: binds

B2: AtBOR1 M363F (natural protein)
chain: not shown
notes: BOR1 borate transporter of Arabidopsis thaliana with the point mutation M363F, made on the AtBOR1 WT gene; Expressed from pDDGFP-2 with a TEV-cleavable C-terminal yEGFP His-tag; tag removed with TEV protease before SEC; source: S. cerevisiae FGY217, purified in DDM (His-Trap, TEV cleavage, reverse IMAC, Superdex 200); not shown: yEGFP, C-terminal, cleaved; His-tag, C-terminal, cleaved
binding result: binds

B3: AtBOR1 M363Y (natural protein)
chain: not shown
notes: BOR1 borate transporter of Arabidopsis thaliana with the point mutation M363Y, made on the AtBOR1 WT gene; Expressed from pDDGFP-2 with a TEV-cleavable C-terminal yEGFP His-tag; tag removed with TEV protease before SEC; source: S. cerevisiae FGY217, purified in DDM (His-Trap, TEV cleavage, reverse IMAC, Superdex 200); not shown: yEGFP, C-terminal, cleaved; His-tag, C-terminal, cleaved
binding result: binds
